Assay results as given in patent publication US6858382 (GENERAL HOSPITAL, dated 2005).

Biological target: T1, TetR-RasV12A186 (bacterial transposon Tn10, UniProt P04483 1-207; P01112 1-189)
T1 construct: Yeast two-hybrid bait
Experiment: yeast two-bait interaction trap, TetOp-URA3 reporter (growth without uracil)

T1 sequence (P04483 1-207, tags or fused parts left off): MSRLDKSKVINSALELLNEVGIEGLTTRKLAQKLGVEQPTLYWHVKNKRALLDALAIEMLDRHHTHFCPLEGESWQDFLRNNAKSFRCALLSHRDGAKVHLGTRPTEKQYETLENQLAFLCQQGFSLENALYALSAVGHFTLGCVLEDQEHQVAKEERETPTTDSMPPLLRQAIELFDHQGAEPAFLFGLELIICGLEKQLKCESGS

binding result: no binding
B1: B42-Mxi1 (other, UniProt P50539 1-228, looked up, not shown: large carriers)
chain: MERVKMINVQRLLEAAEFLERRERECEHGYASSFPSMPSPRLQHSKPPRRLSRAQKHSSGSSNTSTANRSTHNELEKNRRAHLRLCLERLKVLIPLGPDCTRHTTLGLLNKAKAHIKKLEEAERKSQHQLENLEREQRFLKWRLEQLQGPQEMERIRMDSIGSTISSDRSDSEREEIEVDVESTEFSHGEVDNISTTSISDIDDHSSLPSIGSDEGYSSASVKLSFTS
notes: Yeast two-hybrid prey, used as a positive control with Max
